# Results: US20170088605A1
# B1: P46F4 (antibody, V domains shown)
# VH: QVQLQESGPGLVKPSQTLSLTCTVSGGSISNGGYYWSWIRLHPGKGLEWIGCIHYSGGTYYNPSLKSRVTVSLDTSKNQFSLNLISVTAADTAIYFCARALIAAPGISDWFDPWGQGTLVTVSS
# VL: QSVLTQPPSVSAAPGQKVTISCSGSNSNVGHNYVSWYQQLPGTAPKLLIYDNNKRPSGIPDRFSGSKSGTSATLGITGLQTGDEADYYCGTWDSSLSAGVFGGGTKVTVLG
# Key:
# [1] = biological target: BKV serotype III chimeric infectious virus (VP1 of isolate AS) (BK virus serotype III)
# [2] = biological target: BKV serotype II chimeric infectious virus (VP1 of isolate SB) (BK virus serotype II)
# [3] = biological target: BKV serotype IV chimeric infectious virus (VP1 of strain ITA-4) (BK virus serotype IV)
# [4] = biological target: BKV serotype I infectious virus (VP1) (BK virus serotype I) (UniProt P03088)
# Chain of BKV serotype I infectious virus (VP1) (BK virus serotype I) (P03088 whole entry): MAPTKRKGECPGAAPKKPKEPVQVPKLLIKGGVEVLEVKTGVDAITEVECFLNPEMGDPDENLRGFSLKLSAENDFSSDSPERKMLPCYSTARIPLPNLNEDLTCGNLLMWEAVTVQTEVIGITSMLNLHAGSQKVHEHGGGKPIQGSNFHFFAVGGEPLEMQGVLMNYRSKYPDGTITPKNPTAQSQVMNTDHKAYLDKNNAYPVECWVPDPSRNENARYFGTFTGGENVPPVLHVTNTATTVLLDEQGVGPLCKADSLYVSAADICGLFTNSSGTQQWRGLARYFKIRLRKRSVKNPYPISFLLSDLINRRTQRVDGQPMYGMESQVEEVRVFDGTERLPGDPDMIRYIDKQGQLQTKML
binder,measurement,setting,value
B1,neutralization EC50,[1],> 100 µg/mL
same,neutralization EC90,[1],> 100 µg/mL
same,neutralization EC50,[2],> 100 µg/mL
same,neutralization EC90,[2],> 100 µg/mL
same,neutralization EC50,[3],> 100 µg/mL
same,neutralization EC90,[3],> 100 µg/mL
same,neutralization EC50,[4],0.004 µg/mL
same,neutralization EC90,[4],0.29 µg/mL
